From patent US20230220589A1

B1: engineered M44-L binder (SEQ ID NO: 31) (designed binder, not shown: small tags and cut ends; large carriers)
chain: QDSTQNLIPAPPLISVPLQPGFWTERFQGRWFLVGFAGNAVQKERQSRLTMQSLILELQEDNSYNITAINVRGQGCRYIISTLVPSSRPGQFTLGNIHSYPQIQSLDVQVADTDYDQFAMVFLQGTSENKQYFEVALAGRTKGLSDELKERFVSFAKSLGLKDNNIVFSVPTDQCIDN
B2: engineered M44-L binder (SEQ ID NO: 21) (designed binder, not shown: small tags and cut ends; large carriers)
chain: QVSVQPNFQQDKFLGRWFYAGHASNSSWYREKVAALSMAKLVVAPATDGGLNATETFLRKNQCETITSLLQPAGSLGSYSSRSPHGGSTWSTSVVETDYDQYALLYLQGSKGPGEDFRGAILASRTQTPRAELKEKFTAFSKAQGFTEDTIVFLPQTDKCMTEQ
B3: engineered M44-A binder (SEQ ID NO: 42) (designed binder, not shown: small tags and cut ends; large carriers)
chain: QVSVQPNFQQDKFLGRWFVAGLASNSSWDREKVAALSGAKMVVAPATDGGLNVTRTMLRKNQCETYTGLLQPAGSLGSYSWRSPHPGSTGSESVVETDYDQYALVYGQGSKGPGEDLRAAALWSRTQTPRAELKEKFTAFSKAQGFTEDTIVFLPQTDKCMTEQ

Molecular target: M44-modified A NTAA target peptides (M44-A-P2-peptide)
Assay: encoding assay; P2 E

encoding yield | Binder
0.03 | B1
0.01 | B2
0.05 | B3

Molecular target: M44-modified D NTAA target peptides
Assay: encoding assay; P2 E

encoding yield | Binder
0.02 | B1
0.01 | B2
0.03 | B3

Molecular target: M44-modified E NTAA target peptides
Assay: encoding assay; P2 E

encoding yield | Binder
0.02 | B1
0.01 | B2
0.02 | B3

Molecular target: M44-modified F NTAA target peptides (M44-F-P2-peptide)
Assay: encoding assay; P2 E

encoding yield | Binder
0.01 | B1
0 | B2
0.02 | B3

Molecular target: M44-modified H NTAA target peptides
Assay: encoding assay; P2 E

encoding yield | Binder
0.02 | B1
0.01 | B2
0.03 | B3

Molecular target: M44-modified I NTAA target peptides (M44-I-P2-peptide)
Assay: encoding assay; P2 E

encoding yield | Binder
0.01 | B1
0 | B2
0.02 | B3

Molecular target: M44-modified L NTAA target peptides (M44-L-P2-peptide)
Assay: encoding assay; P2 E

encoding yield | Binder
0.03 | B1
0.01 | B2
0.04 | B3

Molecular target: M44-modified M NTAA target peptides
Assay: encoding assay; P2 E

encoding yield | Binder
0.01 | B1
0 | B2
0.01 | B3

Molecular target: M44-modified N NTAA target peptides
Assay: encoding assay; P2 E

encoding yield | Binder
0.01 | B1
0.01 | B2
0.02 | B3

Molecular target: M44-modified P NTAA target peptides
Assay: encoding assay; P2 E

encoding yield | Binder
0.03 | B1
0.01 | B2
0.05 | B3

Molecular target: M44-modified Q NTAA target peptides
Assay: encoding assay; P2 E

encoding yield | Binder
0.02 | B1
0.01 | B2
0.03 | B3

Molecular target: M44-modified S NTAA target peptides
Assay: encoding assay; P2 E

encoding yield | Binder
0.03 | B1
0.01 | B2
0.02 | B3

Molecular target: M44-modified T NTAA target peptides
Assay: encoding assay; P2 E

encoding yield | Binder
0.02 | B1
0.01 | B2
0.03 | B3

Molecular target: M44-modified V NTAA target peptides
Assay: encoding assay; P2 E

encoding yield | Binder
0.02 | B1
0.01 | B2
0.06 | B3

Molecular target: M44-modified W NTAA target peptides
Assay: encoding assay; P2 E

encoding yield | Binder
0.03 | B1
0.01 | B2
0.04 | B3

Molecular target: M44-modified Y NTAA target peptides (M44-Y-P2-peptide)
Assay: encoding assay; P2 E

encoding yield | Binder
0.05 | B1
0.02 | B2
0.06 | B3

Molecular target: M44-modified G NTAA target peptides (M44-G-P2-peptide)
Assay: encoding assay; P2 D

encoding yield | Binder
0.02 | B1
0.01 | B2
0.03 | B3

Molecular target: M44-modified M NTAA target peptides
Assay: encoding assay; P2 D

encoding yield | Binder
0.02 | B1
0.01 | B2
0.04 | B3

Molecular target: M44-modified W NTAA target peptides
Assay: encoding assay; P2 D

encoding yield | Binder
0.02 | B1
0.01 | B2
0.03 | B3

Molecular target: M44-modified A NTAA target peptides (M44-A-P2-peptide)
Assay: encoding assay; P2 L

encoding yield | Binder
0.03 | B1
0.01 | B2
0.37 | B3

Molecular target: M44-modified D NTAA target peptides
Assay: encoding assay; P2 L

encoding yield | Binder
0.03 | B1
0.01 | B2
0.02 | B3

Molecular target: M44-modified E NTAA target peptides
Assay: encoding assay; P2 L

encoding yield | Binder
0.03 | B1
0.01 | B2
0.03 | B3

Molecular target: M44-modified F NTAA target peptides (M44-F-P2-peptide)
Assay: encoding assay; P2 L

encoding yield | Binder
0.06 | B1
0.01 | B2
0.02 | B3

Molecular target: M44-modified G NTAA target peptides (M44-G-P2-peptide)
Assay: encoding assay; P2 L

encoding yield | Binder
0.02 | B1
0.01 | B2
0.16 | B3

Molecular target: M44-modified H NTAA target peptides
Assay: encoding assay; P2 L

encoding yield | Binder
0.03 | B1
0.01 | B2
0.03 | B3

Molecular target: M44-modified I NTAA target peptides (M44-I-P2-peptide)
Assay: encoding assay; P2 L

encoding yield | Binder
0.06 | B1
0.03 | B2
0.03 | B3

Molecular target: M44-modified L NTAA target peptides (M44-L-P2-peptide)
Assay: encoding assay; P2 L

encoding yield | Binder
0.46 | B1
0.22 | B2
0.18 | B3

Molecular target: M44-modified M NTAA target peptides
Assay: encoding assay; P2 L

encoding yield | Binder
0.08 | B1
0.03 | B2
0.04 | B3

Molecular target: M44-modified N NTAA target peptides
Assay: encoding assay; P2 L

encoding yield | Binder
0.17 | B1
0.02 | B2
0.05 | B3

Molecular target: M44-modified P NTAA target peptides
Assay: encoding assay; P2 L

encoding yield | Binder
0.02 | B1
0.01 | B2
0.02 | B3

Molecular target: M44-modified Q NTAA target peptides
Assay: encoding assay; P2 L

encoding yield | Binder
0.04 | B1
0.02 | B2
0.04 | B3

Molecular target: M44-modified S NTAA target peptides
Assay: encoding assay; P2 L

encoding yield | Binder
0.05 | B1
0.02 | B2
0.27 | B3

Molecular target: M44-modified T NTAA target peptides
Assay: encoding assay; P2 L

encoding yield | Binder
0.02 | B1
0.01 | B2
0.11 | B3

Molecular target: M44-modified V NTAA target peptides
Assay: encoding assay; P2 L

encoding yield | Binder
0.04 | B1
0.02 | B2
0.15 | B3

Molecular target: M44-modified W NTAA target peptides
Assay: encoding assay; P2 L

encoding yield | Binder
0.05 | B1
0.02 | B2
0.02 | B3

Molecular target: M44-modified Y NTAA target peptides (M44-Y-P2-peptide)
Assay: encoding assay; P2 L

encoding yield | Binder
0.09 | B1
0.03 | B2
0.07 | B3

Molecular target: M44-modified N NTAA target peptides
Assay: encoding assay; P2 T

encoding yield | Binder
0.02 | B1
0.01 | B2
0.03 | B3

Molecular target: M44-modified A NTAA target peptides (M44-A-P2-peptide)
Assay: encoding assay; P2 Y

encoding yield | Binder
0.05 | B1
0.01 | B2
0.29 | B3

Molecular target: M44-modified D NTAA target peptides
Assay: encoding assay; P2 Y

encoding yield | Binder
0.05 | B1
0.01 | B2
0.04 | B3

Molecular target: M44-modified E NTAA target peptides
Assay: encoding assay; P2 Y

encoding yield | Binder
0.03 | B1
0.01 | B2
0.02 | B3

Molecular target: M44-modified F NTAA target peptides (M44-F-P2-peptide)
Assay: encoding assay; P2 Y

encoding yield | Binder
0.13 | B1
0.02 | B2
0.04 | B3

Molecular target: M44-modified G NTAA target peptides (M44-G-P2-peptide)
Assay: encoding assay; P2 Y

encoding yield | Binder
0.04 | B1
0.01 | B2
0.08 | B3

Molecular target: M44-modified H NTAA target peptides
Assay: encoding assay; P2 Y

encoding yield | Binder
0.09 | B1
0.03 | B2
0.07 | B3

Molecular target: M44-modified I NTAA target peptides (M44-I-P2-peptide)
Assay: encoding assay; P2 Y

encoding yield | Binder
0.16 | B1
0.07 | B2
0.11 | B3

Molecular target: M44-modified L NTAA target peptides (M44-L-P2-peptide)
Assay: encoding assay; P2 Y

encoding yield | Binder
0.42 | B1
0.08 | B2
0.1 | B3

Molecular target: M44-modified M NTAA target peptides
Assay: encoding assay; P2 Y

encoding yield | Binder
0.14 | B1
0.04 | B2
0.06 | B3

Molecular target: M44-modified N NTAA target peptides
Assay: encoding assay; P2 Y

encoding yield | Binder
0.02 | B1
0.01 | B2
0.03 | B3

Molecular target: M44-modified P NTAA target peptides
Assay: encoding assay; P2 Y

encoding yield | Binder
0.03 | B1
0.02 | B2
0.03 | B3

Molecular target: M44-modified T NTAA target peptides
Assay: encoding assay; P2 Y

encoding yield | Binder
0.05 | B1
0.01 | B2
0.1 | B3

Molecular target: M44-modified W NTAA target peptides
Assay: encoding assay; P2 Y

encoding yield | Binder
0.15 | B1
0.01 | B2
0.05 | B3

Molecular target: M44-modified Y NTAA target peptides (M44-Y-P2-peptide)
Assay: encoding assay; P2 Y

encoding yield | Binder
0.06 | B1
0.02 | B2
0.04 | B3
